# In paper PMC10563049:
# Biological target: recombinant VE-cadherin-Fc (UniProt P33151)
# Test: atomic force microscopy
substance,measurement,value
recombinant VE-cadherin-Fc (from UniProt P33151) (Fc fusion),binding activity (binding probability by AFM),61%
